Data published in paper PMC4767637.

Molecular target: STAT3 (127-711)-His6 I568F (HIES mutant) (human) (UniProt P40763)
Experiment: ITC

Chain of STAT3 (127-711)-His6 I568F (HIES mutant) (human) (P40763 127-711 I568F): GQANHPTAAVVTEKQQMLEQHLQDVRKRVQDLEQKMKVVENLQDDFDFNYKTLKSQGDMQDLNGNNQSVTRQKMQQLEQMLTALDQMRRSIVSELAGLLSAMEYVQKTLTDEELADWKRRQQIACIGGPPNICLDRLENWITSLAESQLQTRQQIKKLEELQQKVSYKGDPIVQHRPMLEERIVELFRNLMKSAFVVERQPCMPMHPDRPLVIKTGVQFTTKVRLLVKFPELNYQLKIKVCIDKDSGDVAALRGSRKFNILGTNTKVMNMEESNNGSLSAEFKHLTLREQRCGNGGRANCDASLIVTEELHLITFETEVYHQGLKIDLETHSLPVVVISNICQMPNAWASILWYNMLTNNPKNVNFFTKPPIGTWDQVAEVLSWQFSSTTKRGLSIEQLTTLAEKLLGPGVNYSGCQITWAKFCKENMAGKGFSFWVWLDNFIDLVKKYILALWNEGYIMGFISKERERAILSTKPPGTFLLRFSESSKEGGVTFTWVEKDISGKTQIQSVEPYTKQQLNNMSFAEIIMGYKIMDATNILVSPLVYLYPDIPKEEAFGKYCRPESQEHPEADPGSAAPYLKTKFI

- fold reduction in binding affinity against WT STAT3: 5 fold
Substance: phosphotyrosine peptide derived from gp130 (pY904)
